According to US20110044985A1:

Molecular target: Aβ1-40
Test: ELISA, nonbiotinylated peptide on plate

Aβ1-40, sequence (peptide, as listed by the source): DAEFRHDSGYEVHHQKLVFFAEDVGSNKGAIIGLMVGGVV

A450 ELISA [A450] | Binder
0.23 | 6G heavy chain mutant variant 7D (N101C) (antibody, V domains shown) VH: QVQLVQSGAEVKKPGASVKVSCKASGYTFTTYAIHWVRQAPGQGLEWMGFTSPYSGVSNYNQKFKGRVTMTRDTSTSTVYMELSSLRSEDTAVYYCARFDCYDRGYVRDYWGQGTLVTVS VL: DIVMTQSPDSLAVSLGERATINCRASESVDNDRISFLNWYQQKPGQPPKLLIYAATKQGTGVPDRFSGSGSGTDFTLTISSLQAEDVAVYYCQQSKEFPWSFGGGTKVEIKR
0.22 | 6G heavy chain mutant variant 9E (N101R) (antibody, V domains shown) VH: QVQLVQSGAEVKKPGASVKVSCKASGYTFTTYAIHWVRQAPGQGLEWMGFTSPYSGVSNYNQKFKGRVTMTRDTSTSTVYMELSSLRSEDTAVYYCARFDRYDRGYVRDYWGQGTLVTVS VL: DIVMTQSPDSLAVSLGERATINCRASESVDNDRISFLNWYQQKPGQPPKLLIYAATKQGTGVPDRFSGSGSGTDFTLTISSLQAEDVAVYYCQQSKEFPWSFGGGTKVEIKR
